From patent US8999727

Key:
[1] = target: truncated TSH receptor chimera B (extracellular portion) fused with the secretory alkaline phosphatase (human TSHR with rat LH-CGR subsequence); assay: bridge assay: standard at 2.0 IU/L on plate-bound TSH receptor chimera B, detected with SEAP-chimera B; RLU relative to zero serum
[2] = target: truncated TSH receptor chimera B (extracellular portion) fused with the secretory alkaline phosphatase (human TSHR with rat LH-CGR subsequence); assay: bridge assay: standard at 30.0 IU/L on plate-bound TSH receptor chimera B, detected with SEAP-chimera B, chemiluminescence
[3] = target: truncated TSH receptor chimera B (extracellular portion) fused with the secretory alkaline phosphatase (human TSHR with rat LH-CGR subsequence); assay: bridge assay: standard at 0.6 IU/L on plate-bound TSH receptor chimera B, detected with SEAP-chimera B; RLU relative to zero serum
[4] = target: truncated TSH receptor chimera B (extracellular portion) fused with the secretory alkaline phosphatase (human TSHR with rat LH-CGR subsequence); assay: bridge assay: standard at 0.8 IU/L on plate-bound TSH receptor chimera B, detected with SEAP-chimera B, chemiluminescence
[5] = target: truncated TSH receptor chimera B (extracellular portion) fused with the secretory alkaline phosphatase (human TSHR with rat LH-CGR subsequence); assay: bridge assay: standard at 2.0 IU/L on plate-bound TSH receptor chimera B, detected with SEAP-chimera B, chemiluminescence
[6] = target: truncated TSH receptor chimera B (extracellular portion) fused with the secretory alkaline phosphatase (human TSHR with rat LH-CGR subsequence); assay: bridge assay: standard at 0.9 IU/L on plate-bound TSH receptor chimera B, detected with SEAP-chimera B, chemiluminescence
[7] = target: truncated TSH receptor chimera B (extracellular portion) fused with the secretory alkaline phosphatase (human TSHR with rat LH-CGR subsequence); assay: bridge assay: standard at 0.5 IU/L on plate-bound TSH receptor chimera B, detected with SEAP-chimera B; RLU relative to zero serum
[8] = target: truncated TSH receptor chimera B (extracellular portion) fused with the secretory alkaline phosphatase (human TSHR with rat LH-CGR subsequence); assay: bridge assay: standard at 0.2 IU/L on plate-bound TSH receptor chimera B, detected with SEAP-chimera B; RLU relative to zero serum
[9] = target: truncated TSH receptor chimera B (extracellular portion) fused with the secretory alkaline phosphatase (human TSHR with rat LH-CGR subsequence); assay: bridge assay: standard at 0.7 IU/L on plate-bound TSH receptor chimera B, detected with SEAP-chimera B; RLU relative to zero serum
[10] = target: truncated TSH receptor chimera B (extracellular portion) fused with the secretory alkaline phosphatase (human TSHR with rat LH-CGR subsequence); assay: bridge assay: standard at 50.0 IU/L on plate-bound TSH receptor chimera B, detected with SEAP-chimera B; RLU relative to zero serum
[11] = target: truncated TSH receptor chimera B (extracellular portion) fused with the secretory alkaline phosphatase (human TSHR with rat LH-CGR subsequence); assay: bridge assay: standard at 0.4 IU/L on plate-bound TSH receptor chimera B, detected with SEAP-chimera B; RLU relative to zero serum
[12] = target: truncated TSH receptor chimera B (extracellular portion) fused with the secretory alkaline phosphatase (human TSHR with rat LH-CGR subsequence); assay: bridge assay: standard at 0.3 IU/L on plate-bound TSH receptor chimera B, detected with SEAP-chimera B; RLU relative to zero serum
[13] = target: truncated TSH receptor chimera B (extracellular portion) fused with the secretory alkaline phosphatase (human TSHR with rat LH-CGR subsequence); assay: bridge assay: standard at 30.0 IU/L on plate-bound TSH receptor chimera B, detected with SEAP-chimera B; RLU relative to zero serum
[14] = target: truncated TSH receptor chimera B (extracellular portion) fused with the secretory alkaline phosphatase (human TSHR with rat LH-CGR subsequence); assay: bridge assay: standard at 1.0 IU/L on plate-bound TSH receptor chimera B, detected with SEAP-chimera B, chemiluminescence
[15] = target: truncated TSH receptor chimera B (extracellular portion) fused with the secretory alkaline phosphatase (human TSHR with rat LH-CGR subsequence); assay: bridge assay: standard at 0.2 IU/L on plate-bound TSH receptor chimera B, detected with SEAP-chimera B, chemiluminescence
[16] = target: truncated TSH receptor chimera B (extracellular portion) fused with the secretory alkaline phosphatase (human TSHR with rat LH-CGR subsequence); assay: bridge assay: standard at 15.0 IU/L on plate-bound TSH receptor chimera B, detected with SEAP-chimera B, chemiluminescence
[17] = target: truncated TSH receptor chimera B (extracellular portion) fused with the secretory alkaline phosphatase (human TSHR with rat LH-CGR subsequence); assay: bridge assay: standard at 0.8 IU/L on plate-bound TSH receptor chimera B, detected with SEAP-chimera B; RLU relative to zero serum
[18] = target: truncated TSH receptor chimera B (extracellular portion) fused with the secretory alkaline phosphatase (human TSHR with rat LH-CGR subsequence); assay: bridge assay: standard at 0.5 IU/L on plate-bound TSH receptor chimera B, detected with SEAP-chimera B, chemiluminescence
[19] = target: truncated TSH receptor chimera B (extracellular portion) fused with the secretory alkaline phosphatase (human TSHR with rat LH-CGR subsequence); assay: bridge assay: standard at 0.1 IU/L on plate-bound TSH receptor chimera B, detected with SEAP-chimera B, chemiluminescence
[20] = target: truncated TSH receptor chimera B (extracellular portion) fused with the secretory alkaline phosphatase (human TSHR with rat LH-CGR subsequence); assay: bridge assay: standard at 0.7 IU/L on plate-bound TSH receptor chimera B, detected with SEAP-chimera B, chemiluminescence
[21] = target: truncated TSH receptor chimera B (extracellular portion) fused with the secretory alkaline phosphatase (human TSHR with rat LH-CGR subsequence); assay: bridge assay: standard at 0.4 IU/L on plate-bound TSH receptor chimera B, detected with SEAP-chimera B, chemiluminescence
[22] = target: truncated TSH receptor chimera B (extracellular portion) fused with the secretory alkaline phosphatase (human TSHR with rat LH-CGR subsequence); assay: bridge assay: standard at 15.0 IU/L on plate-bound TSH receptor chimera B, detected with SEAP-chimera B; RLU relative to zero serum
[23] = target: truncated TSH receptor chimera B (extracellular portion) fused with the secretory alkaline phosphatase (human TSHR with rat LH-CGR subsequence); assay: bridge assay: standard at 0.9 IU/L on plate-bound TSH receptor chimera B, detected with SEAP-chimera B; RLU relative to zero serum
[24] = target: truncated TSH receptor chimera B (extracellular portion) fused with the secretory alkaline phosphatase (human TSHR with rat LH-CGR subsequence); assay: bridge assay: standard at 0.6 IU/L on plate-bound TSH receptor chimera B, detected with SEAP-chimera B, chemiluminescence
[25] = target: truncated TSH receptor chimera B (extracellular portion) fused with the secretory alkaline phosphatase (human TSHR with rat LH-CGR subsequence); assay: bridge assay: standard at 50.0 IU/L on plate-bound TSH receptor chimera B, detected with SEAP-chimera B, chemiluminescence
[26] = target: truncated TSH receptor chimera B (extracellular portion) fused with the secretory alkaline phosphatase (human TSHR with rat LH-CGR subsequence); assay: bridge assay: standard at 5.0 IU/L on plate-bound TSH receptor chimera B, detected with SEAP-chimera B; RLU relative to zero serum
[27] = target: truncated TSH receptor chimera B (extracellular portion) fused with the secretory alkaline phosphatase (human TSHR with rat LH-CGR subsequence); assay: bridge assay: standard at 1.0 IU/L on plate-bound TSH receptor chimera B, detected with SEAP-chimera B; RLU relative to zero serum
[28] = target: truncated TSH receptor chimera B (extracellular portion) fused with the secretory alkaline phosphatase (human TSHR with rat LH-CGR subsequence); assay: bridge assay: standard at 0.3 IU/L on plate-bound TSH receptor chimera B, detected with SEAP-chimera B, chemiluminescence
[29] = target: truncated TSH receptor chimera B (extracellular portion) fused with the secretory alkaline phosphatase (human TSHR with rat LH-CGR subsequence); assay: bridge assay: standard at 0.1 IU/L on plate-bound TSH receptor chimera B, detected with SEAP-chimera B; RLU relative to zero serum
[30] = target: truncated TSH receptor chimera B (extracellular portion) fused with the secretory alkaline phosphatase (human TSHR with rat LH-CGR subsequence); assay: bridge assay: standard at 5.0 IU/L on plate-bound TSH receptor chimera B, detected with SEAP-chimera B, chemiluminescence

Chain of truncated TSH receptor chimera B (extracellular portion) fused with the secretory alkaline phosphatase (human TSHR with rat LH-CGR subsequence) (chain, as listed by the source mutant): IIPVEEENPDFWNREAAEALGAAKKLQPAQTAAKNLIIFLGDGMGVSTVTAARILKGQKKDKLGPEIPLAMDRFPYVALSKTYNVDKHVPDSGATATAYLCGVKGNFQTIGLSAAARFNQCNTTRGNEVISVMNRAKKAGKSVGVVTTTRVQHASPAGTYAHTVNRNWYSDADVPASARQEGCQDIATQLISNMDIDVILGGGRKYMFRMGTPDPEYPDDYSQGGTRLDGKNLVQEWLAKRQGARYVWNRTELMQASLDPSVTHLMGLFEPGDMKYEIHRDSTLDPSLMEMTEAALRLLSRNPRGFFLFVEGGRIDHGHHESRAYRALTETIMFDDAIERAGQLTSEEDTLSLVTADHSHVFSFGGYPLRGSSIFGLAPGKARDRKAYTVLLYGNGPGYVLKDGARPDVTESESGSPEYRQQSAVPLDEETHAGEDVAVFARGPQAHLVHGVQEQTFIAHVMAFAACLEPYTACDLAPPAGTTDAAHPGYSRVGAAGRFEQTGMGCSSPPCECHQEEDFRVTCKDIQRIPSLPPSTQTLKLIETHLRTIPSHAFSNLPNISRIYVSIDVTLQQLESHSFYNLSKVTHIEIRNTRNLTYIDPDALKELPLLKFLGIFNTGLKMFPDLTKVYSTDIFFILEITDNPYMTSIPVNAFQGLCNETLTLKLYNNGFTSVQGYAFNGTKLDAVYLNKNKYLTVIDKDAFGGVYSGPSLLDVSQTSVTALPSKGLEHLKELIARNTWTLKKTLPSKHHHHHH

B/B0 [1]: 55.5
RLU Average n = 3 [2]: 3.77e+06 RLU
B/B0 [3]: 16.9
RLU Average n = 3 [4]: 166000 RLU
RLU Average n = 3 [5]: 382000 RLU
RLU Average n = 3 [6]: 192000 RLU
B/B0 [7]: 14.3
B/B0 [8]: 6.77
B/B0 [9]: 19.7
B/B0 [10]: 704
B/B0 [11]: 11.8
B/B0 [12]: 9.57
B/B0 [13]: 548
RLU Average n = 3 [14]: 183000 RLU
RLU Average n = 3 [15]: 46600 RLU
RLU Average n = 3 [16]: 2.48e+06 RLU
B/B0 [17]: 24.1
RLU Average n = 3 [18]: 98400 RLU
RLU Average n = 3 [19]: 28800 RLU
RLU Average n = 3 [20]: 136000 RLU
RLU Average n = 3 [21]: 81500 RLU
B/B0 [22]: 361
B/B0 [23]: 27.9
RLU Average n = 3 [24]: 117000 RLU
RLU Average n = 3 [25]: 4.85e+06 RLU
B/B0 [26]: 136
B/B0 [27]: 26.6
RLU Average n = 3 [28]: 65800 RLU
B/B0 [29]: 4.19
RLU Average n = 3 [30]: 939000 RLU
Substance: standard solution WHO 90/672 with a standardized concentration of autoimmune antibody (TSH receptor auto-antibody standard)
